In paper PMC7114247:
pKd: −log10 of the molar value.

Biological target: rVP35 wt (Zaire ebolavirus) (UniProt Q05127)
UniProt Q05127, sequence (Q05127 whole entry): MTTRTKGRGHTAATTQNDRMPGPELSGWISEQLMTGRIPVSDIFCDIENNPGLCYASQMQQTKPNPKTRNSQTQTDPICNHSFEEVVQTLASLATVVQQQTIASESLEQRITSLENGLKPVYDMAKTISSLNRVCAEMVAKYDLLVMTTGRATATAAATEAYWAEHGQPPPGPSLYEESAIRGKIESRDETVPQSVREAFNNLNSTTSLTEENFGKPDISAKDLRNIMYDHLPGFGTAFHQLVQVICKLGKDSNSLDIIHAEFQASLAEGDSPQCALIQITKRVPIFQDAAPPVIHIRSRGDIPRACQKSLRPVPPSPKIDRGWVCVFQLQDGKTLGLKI

Substance | pKd
IVT 50 bp dsRNA | 8.49
IVT 150 bp dsRNA | 8.62
IVT 500 bp dsRNA | 8.55
